The data set deals with HoxB13 (CIX-1, Isl-3) (Rattus norvegicus). Briefly: EMSA; described as high affinity; competed by 50 ng unlabeled FLAT; 50 mM KCl, 20 mM HEPES pH 7.8, 1 mM EDTA, 20% glycerol, room temperature. The note with it: tags: GST fusion (pGEX-3X) expressed in E. coli BL21, GST removed by factor Xa; GATC 5' overhangs filled in. The procedure:
For gel shift assays, the labeled fragment was incubated 15 minutes at room temperature with buffer alone (50 mM KCI, 20 mM HEPES pH 7.8, 1 mM EDTA, 20% glycerol, 1 mM DTt and 1 mM PMSF), 1 μl bacterially expressed HoxB13 (see Example 3; "rCIX-1" in FIG. 4), 1 μl HoxB13 and 50 ng unlabeled FLAT DNA ("rCIX-1+50 ng FLAT" in FIG. 4), 5 μg Hela cell nuclear extract, 5 μg RIN cell nuclear extract, 5 μg RIN extract and 50 ng FLAT, 5 μg HeLa extract and 50 ng FLAT (respectively, as shown in FIG. 4). The samples were then run on a 5% acrylamide gel in 0.5× TBE.

Experimental findings from patent US5955579, “Islet-specific homeoprotein and transcriptional regulator of insulin gene expression, HOXB13” (Strang Cancer Prevention Center) are described below.

HoxB13 (CIX-1, Isl-3) (Rattus norvegicus), sequence (chain, as listed by the source): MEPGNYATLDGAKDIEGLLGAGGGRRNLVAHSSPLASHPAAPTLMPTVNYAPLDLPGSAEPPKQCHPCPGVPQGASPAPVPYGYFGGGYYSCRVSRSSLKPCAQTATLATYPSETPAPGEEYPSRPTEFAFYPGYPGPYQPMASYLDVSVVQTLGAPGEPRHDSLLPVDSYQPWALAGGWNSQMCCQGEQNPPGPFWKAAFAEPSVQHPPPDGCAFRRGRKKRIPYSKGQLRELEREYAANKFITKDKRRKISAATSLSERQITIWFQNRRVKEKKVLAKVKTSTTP

B1: FLAT element probe (dsDNA)
DNA 1: GATCCCCTTGTTAATAATCTAATTACCCTAGG
DNA 2: GATCCCTAGGGTAATTAGATTATTAACAAGGG
For the molecule B1, the binding result is recorded as “binds”.
